T1: cynomolgus monkey TMPRSS6 expressed on HEK293T cells, CynoTMPRSS6-(His)6
T1 chain: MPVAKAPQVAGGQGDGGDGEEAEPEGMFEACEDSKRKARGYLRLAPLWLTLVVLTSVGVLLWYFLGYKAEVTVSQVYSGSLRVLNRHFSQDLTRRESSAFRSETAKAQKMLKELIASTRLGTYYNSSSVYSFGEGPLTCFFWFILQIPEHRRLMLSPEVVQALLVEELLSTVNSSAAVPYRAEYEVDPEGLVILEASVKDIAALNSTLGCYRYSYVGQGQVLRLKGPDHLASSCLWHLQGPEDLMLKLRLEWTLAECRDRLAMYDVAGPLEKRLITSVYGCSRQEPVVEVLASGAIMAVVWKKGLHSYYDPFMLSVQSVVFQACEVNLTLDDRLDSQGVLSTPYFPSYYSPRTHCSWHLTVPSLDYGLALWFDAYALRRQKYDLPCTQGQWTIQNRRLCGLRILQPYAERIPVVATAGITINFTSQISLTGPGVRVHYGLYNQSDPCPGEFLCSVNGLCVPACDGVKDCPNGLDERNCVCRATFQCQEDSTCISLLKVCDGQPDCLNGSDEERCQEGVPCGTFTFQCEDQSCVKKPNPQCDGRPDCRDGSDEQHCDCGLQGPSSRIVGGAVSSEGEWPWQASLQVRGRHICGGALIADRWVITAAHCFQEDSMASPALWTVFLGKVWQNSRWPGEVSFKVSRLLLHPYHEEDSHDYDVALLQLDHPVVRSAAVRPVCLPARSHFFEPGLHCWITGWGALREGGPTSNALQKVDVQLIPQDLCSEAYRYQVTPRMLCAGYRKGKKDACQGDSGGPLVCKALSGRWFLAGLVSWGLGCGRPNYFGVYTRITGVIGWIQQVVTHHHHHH

T2: cynomolgus monkey TMPRSS6 expressed on HEK293T cells, CynoTMPRSS6-(His)6 (cynomolgus monkey, UniProt Q8IU80 10-811 (human entry))
T2 chain: T1 chain

B1: MWTx-001 anti-TMPRSS6 monoclonal antibody (antibody, mouse IgG2a, kappa, V domains shown)
VH: QVQLQQPGAELAKPGASVKMSCKASGYTFTSYWITWVKQRPGQDLEWIGNIYPGSGSTYYNEKFKSKATLTVDTSSRTAYMQLSSLTSADSAVYYCAPYDSDYAMDYWGQGTSVTVSS
VL: DIKMTQSPSSMYASLGERVTITCKASQDINNYLSWFQQKPGKSPKTLIYRANRLVDGVPSRVSGSGSGQDYSLTISSLEYEDVGIYFCLQYDEFPLTFGAGTKLELKR
notes: Mouse monoclonal antibody from hybridoma (ATCC PTA-126759)
B2: MWTx-002 anti-TMPRSS6 monoclonal antibody (antibody, mouse IgG2b, kappa, V domains shown)
VH: EVQLQQSGAELVKPGASVKLSCTASGFNIKDYYIHWVKERTEQGLEWFGRIDPEDGESEYAPKFQGKATLTADTSSNTAYLQLSSLTSEDTAVYYCTRGDSMMVTYFDYWGQGTTLTVSS
VL: DIVMTQSHKFMSTSVGDRVSITCKASQDVSTAVAWYQQKPGQSPKLLIYWAFTRHTGVPDRFTSTGSGTDYALTISSVQAEDLALYYCQQHYRSPWTFGGGTKLEIKR
notes: Mouse monoclonal antibody from hybridoma (ATCC PTA-126760)
B3: MWTx-003 anti-TMPRSS6 monoclonal antibody (antibody, mouse IgG2b, kappa, V domains shown)
VH: EVQLQQSGAELVKPGASVKLSCTASGFNIEDYYIHWVKERTEQGLEWIGRIDPEDGETTYAPQFQGKATIIPDTSSNTAYMQLSSLTSEDAAVYYCARSIYLDPMDYWGQGTSVTVSS
VL: DIVMTQSHKFMSTSVGDRVSITCKASQDVTTAVAWYQQKPGQSPKILIYWATTRHTGVPDRFTGSISGTTYILTISSVQAEDLALYYCQQHYSTPYTFGGGTKLEIKR
notes: Mouse monoclonal antibody from hybridoma (ATCC PTA-126761); The recombinant version r4K12B has the same HC and LC; also called r4K12B; recombinant MWTx-003
B4: humanized anti-TMPRSS6 antibody variant hzMWTx-003 Var (antibody, human IgG1, kappa, L234A L235A, V domains shown)
VH: QVQLVQSGAEVKKPGASVKVSCKASGFNIEDYYMHWVRQAPGQRLEWMGRIDPEDAETTYSPKFQGRVTIIPDTSANTAYMELSSLRSEDTAVYYCARSIYLDPMDYWGQGTLVTVSS
VL: DIQMTQSPKSLSASVGDRVTITCRASQDVTTALAWYQQKPGQSPKLLIYWATTRHSGVPSRFSGSGSGTDFTLTISSLQPEDFATYYCQQHYSTPYTFGQGTKLEIKR
notes: Human IgG1 / kappa
B5: humanized anti-TMPRSS6 antibody variant hzMWTx-002 Var (antibody, human IgG1, kappa, N297A, V domains shown)
VH: EVQLVQSGAEVKKPGASVKVSCKASGFNIKDYYIHWVRQATGQGLEWMGRIDPEDAESEYAPKFQGRVTITADTSTDTAYMELSSLRSEDTAVYYCTRGDSMMVTYFDYWGQGTLVTVSS
VL: DIQMTQSPSSLSASVGDRVTITCKASQDVSTAVAWYQQKPGKAPKLLIYWAFTRHTGVPSRFSGSGSGTDYALTISSLQPEDFATYYCQQHYRSPWTFGGGTKVEIKR
notes: Human IgG1 / kappa
B6: humanized anti-TMPRSS6 antibody variant hzMWTx-001 Var (antibody, human IgG1, kappa, N297A, V domains shown)
VH: EVQLVQSGAEVKKPGASVKVSCKASGYTFTSYWITWVRQAPGQRLEWIGNIYPGSGSTYYNEKFKSKATITRDTSSRTAYMELSSLRSEDTAVYYCAPYDADYAMDYWGQGTLVTVSS
VL: DIQMTQSPSSLSASVGDRVTITCKASQDISNYLSWFQQKPGKAPKLLIYRANRLVEGVPSRFSGSGSGTDFTLTISSLQPEDFATYFCLQYDEFPLTFGGGTKVEIKR
notes: Human IgG1 / kappa

Biological target: T1, cynomolgus monkey TMPRSS6 expressed on …
Assay: cell surface ELISA

| EC50 | Binder |
| --- | --- |
| 0.1 µg/mL | B1 |
| 0.06 µg/mL | B2 |
| 0.09 µg/mL | B3 |

Biological target: T2, cynomolgus monkey TMPRSS6 expressed on …
Assay: summary of Example 4 (FACS, cell surface ELISA)
Method: Selected anti-TMPRSS6 antibodies were tested to determine whether any are capable of binding to TMPRSS6 from mouse and/or cynomolgus monkey. HEK293T cells stably expressing human TMPRSS6 (HuTMPRSS6-(His)₆) (generated by LakePharma Inc as described above), HEK293T cells stably expressing mouse TMPRSS6 (MoTMPRSS6-(His)₆) (SEQ ID NO: 98) (generated by LakePharma Inc as described above) and HEK293T cells transiently expressing cynomolgus monkey TMPRSS6 (CynoTMPRSS6-(His)₆) (SEQ ID NO: 99) (generated in house) were collected. HEK293T cells stably expressing human TMPRSS6 were used as a positive control and HEK293T cells were used as a negative control (as described above). Cells were blocked with dPBS+3% BSA before incubation with anti-TMPRSS6 antibodies diluted in dPBS+3% BSA. After incubation, cells were washed with dPBS and followed by another incubation with goat anti-mouse IgG conjugated with AlexaFluor-488 as a 2° antibody (Invitrogen). At last, cells were washed with dPBS to remove unbound antibody, re-suspended with dPBS+1 mM EDTA, and then subjected to FACS analysis using a NOVOCYTE® Flow Cytometer (ACEA Biosciences, Inc., San Diego CA). Bound antibody was determined by excitation at 488 nm and measurement of emission (FITC-A) at 530 nm. Results for these assays are shown in histogram plots in FIGS. 4A-4I.
(§1) HEK293T cells stably expressing mouse TMPRSS6 (generated by LakePharma Inc as described above, FIGS. 4J, 4L, 4N, 4P, 4R, 4T) or cynomolgus monkey (generated in house as described above, FIGS. 4K, 4M, 4O, 4Q, 4S, 4U) were fixed with methanol (100%), and washed with dPBS (Dulbecco's phosphate-buffered saline, Corning Cellgro) before incubation with various concentrations of anti-TMPRSS6 antibodies and their humanized variants diluted in BSA medium (DMEM+1% Pen/Strep+10 mM HEPES+1 mg/ml BSA (Sigma-Aldrich)). Purified mouse IgG (FIGS. 4J-4O) or Human IgG1 (FIGS. 4P-4U) was used as a control.

| binding result | Binder |
| --- | --- |
| binds | B1 |
| binds | B2 |
| binds | B3 |

Biological target: T2, cynomolgus monkey TMPRSS6 expressed on …
Assay: summary of Example 4 (cell surface ELISA)
Method: as §1, with “control. After incubation, cells were washed with BSA medium and then incubated with goat anti-mouse (Invitrogen, FIGS. 4J-4O) or anti-human (Millipore, FIGS. 4P-4U) IgG conjugated with HRP as a 2° antibody. Finally, cells were washed with dPBS to remove unbound antibody and color developed with ELISA liquid substrate (Sigma-Aldrich), followed by stopping the reaction with addition of the same volume of […] 1M H₂SO₄. Bound antibody was measured by absorbance at OD₄₅₀ₙₘ.” for “control.”

| binding result | Binder |
| --- | --- |
| binds | B4 |
| binds | B5 |
| binds | B6 |

Biological target: T1, cynomolgus monkey TMPRSS6 expressed on …
Assay: cell surface ELISA
Remark: another data set of the same source

| EC50 | Binder |
| --- | --- |
| 0.03 µg/mL | B4 |
| 0.06 µg/mL | B5 |
| 0.003 µg/mL | B6 |

Reference: patent US20250136718A1 (MABWELL THERAPEUTICS, published 2025)
